experiment: soluble on expression in E. coli; label from the status in PepcDB or PDB records

| Sequence | soluble on expression in E. coli |
| --- | --- |
| MSLTQTPNTGSPHRVVIVGGGAGGLELAAKLGRAHGRERVTLVDSRPFHIWKPSLHEAAAGTLDIHQEGLSYLMLANMCNFTFAQGELQGIERERRQIQVGPVADPSGQQVLPPRELSYDTLVLAMGSTSNFFNTPGAAEHAVTLDTTENAEQFRLTMLKAMVQVDLRKVHDPSARLDLVIVGGGATGVELAVELIEASHVVSAYGLPNFRADRDLVITLVEGAPRILSALPEKISRAAHARLTELGVRVETDCRVAEVGADHVVTADGRRFEATMCLWAAGIEGPPLFRQLGLPLNRLGQLEVNERLESPDPHILALGDCCAAPWKDGRTVPARAQAAHQQADYLARKLTARLRNAAEPTEAYAYHDHGSLVSLGQGSGVGSLMGKLAGRGLFVSGTLARLMYMSLHLMHHRAVLGISRTATLALARLLMRRTRPRVKLHEGHHHHHH | soluble |
| MRRGRGKGKKQNASAREDRGSGDEEKIPAYRRRGRPQKPMKDDFEEEEEEDDEEMVEKMEVEDEDEEIDDGSVTSKDLKERKRKMSNGSNTDLTEEENGLGSKPNTDDSTRSTSIGFRQNGSRRKSKPRRAAEAVVECNGV | soluble |
| MPLEEGVLIDCTLGLGGHSKALLSQKPHLKLIGIDKDKFAQEIAKERLKAFEGRYNLLSGGFAKRFKEALETHNKEIKGVLVDLGVSSLQLDDDNRGFNFHSHTLDMRMDLESELNAQKVINSYPIVALEKIFRDYGEIKEYKKIAHKIAERRAKKPFKNAKDLSEFLSSFSKNKKIHPATLVFQAVRIEVNSELEELKEFLQCARNLKGAILCVISFHSLEDALVKNAFKDYAKNCICDPSSFKCACSNNHALGEILTKKPITPSPEEIKNNRRSRSAKMRVFQFKPLEHHHHHH | not soluble |
| MGSDKIHHHHHHMLDKRAQILLKTLIEHYISDGQPVGSRKLSVASGLDLSPASIRNIMSELEDHGFIASPHTSAGRIPTQRGYRLFVDTLLTVQPLQNQEIRKLENVLSSPDPQELINKAAELLSSLTHFAGLVMIPKRQGAAFRHLEFLPLSEKRILVIIVTTDGAVQNRIILAEKPYSASDLTQASNFFNQHYAGNTLDEVKQKLHEELKQMQSDMTRLMAAALEASSKTADNKDGVVIAGKRNLLDVQDLSTNVSSLRKLFEMFEHRTSLMQLLDQSQKASGVQIFIGGESGYLPLDECSMVTAPYETNGQTIGTLGVIGPTRMAYERVIPIVDITAKLLSNALSNNH | not soluble |
| MRKNKLSFKEKAGAEQEECLCFCEGEASREAMFQAPIELPEGFVVDPAEAVANVTWNADSLSCVSDRCLIQTGPEPDEVGVQFAVRLQGTVTLLVSVSPVRNQYGQGDGAVSVIHNAEIDQVVYYSDESDDCPDISDITIENLVVVPPFYGSPLSVTGTIVLVPEPEPVYAFTANPNDQSVSVIDTNTDTVVTTIALPYNPAGIEITPDKSAVFVLHPNNNVISVIDYDTLTVTATILLDQPPRLIRFIPNHEFAYVFTGTAVYVIGIDTLTVDRSIPVEGYDVAIDPNGLFAYVLNFGIVQKVDLTTGEVTGTIERELIVSTIETNWPERYAYVLEQEFFFNYLTVIDLNTFTISSTQELEYEGEYRMFTSGAEVYLYDGFTGNLYSVSPNGAGVIGNVPQSATDYAFTPNGDFLYATRFIEQSIIVYNTDDYSEETVISLGVSPGAITILEHHHHHH | soluble |
| MSLTKNNISFYVVDASEELTMNIKEASEKSGVSADTIRYYERIGLIPPIHRNESGVRKFGAEDLRWILFTRQMRRAGLSIEALIDYLALFREGEHTLEARAELLKKQRIELKNRIDVMQEALDRLDFKIDNYDTHLIPAQEELKDFNVERSNEGHHHHHH | soluble |
| MFDDQDEIHPLLAGAPQTTEFRKLRKRIVREVREAIETYGMVERGARWLVCLSGGKDSYTLLAVLHELKWRGLLPVDLLACNLDQGQPGFPATVLPEFLSRMGVPHRIEYQDTYSIVMDKIPQGRTYCALCSRLRRGNLYRIAREEGCSAVVLGHHRDDILETFFMNLFHGGRLATMPPKLVNEDGDLFVYRPLAFVAEADCEKFARDMAYPIIPCDLCGSQEGLQRQQVKQILDGWEARSPGRRQVMFRALMNARPSHLLDPGLFDFLGLATAPRASEERQDEPPHLRGEA | not soluble |
| MLIPARMSEAEEQRWVTVMLDKLAAQESKRRLGDAELAERAERLSLQYFDGRARPTAVRWVTNQNTRWGSCTPSEGSIRLSHRLQGMPEYVVDYVLLHELAHLLVPGHGPRFWRLLEAYPRTERARGYLEGVVAADRLPHQPAPGAELEHHHHHH | not soluble |
| MSLSVRVDYALVGRELEAREAVCLVFDGSDGRLSSISSSSSCPESSPKFTIAVPPSVNAHIHSSDVQWPEVGNDLSLEELVAPPRGLKHLLLQQAGERACAEAAVGVYRALGRMVVRAAADFREPAAGGCLPVREILATLGGLYTRVVLMGRPGDPYGLEGCDGIGLNSPLDVDPKRMRLLKKSGMRIHAHVAETREMRLEGDLEAALDIGVDTVIHGTHLSREDLELLREHGVTLVLSPRSNMWHGVGLPPVAEAYRVGVKIAFGTDNAAWNMLDPWDEARQAMLVARLQGVKDPGLPHYILKGLLSWGYEALGMEPPALAEGADMCSVALMRLEGYEAGLFRRSFSRYYTLLKIARGDLLQPVCTISGGLLEPAEGHHHHHH | soluble |
| MVFYLIGLGLGDVEDITVKGLNIVKNCARVHLEAYTSILCYGLDKTNLEKFYGREIIEADRTVVEQESDAILNGADKEDVALLVVGDPFGATTHADLVLRAKQQNIPVKVIHNASIMNAVGCCGLQLYNFGETVSIVMWTDEWQPESYYDKIALNRKRGMHTLCLLDIKTKEQTVENMMRGRKIFEPARYQKCSEAARQLLTIYERRKAKGEECAYDENTMVVGLARVGWDNQKIVYASMKDMSEMEMGEPLHSLIIPGETHPLEVDMLETFRP | not soluble |
| MVDREWVLKIAKLARLELKEEEIEVFQKQLSDILDFIDQLKELDTENVEPYIQEFEETPMREDEPHPSLDREKALMNAPERKDGFFVVPRVVEV | soluble |
| MALELSDIRQQITQIDRSLLKLLSERHRLAFDVVRSKEISQKSLRDVEREQQLLQELVQFAENENYQLEAQYITSIFQKIIEDSVLTQQVYLQNKLNEQRNQNLHIAFLGKRGSYSNLAARNYAARYQKQFVELGCQSFEQVFEKVQTGEADFGVLPLENTTSGAINEVYDLLQHTDLSLVGELAYPIKHCVLVNDKTDLNQIDTLYSHPQVIQQCSQFIHSLDRVHIEYCESSSHAMQLVASLNKPNIAALGNEDGGKLYGLSVLKTNIANQENNITRFIVVAKEPREVSSQIPTKTLLLMTTSQQAGALVDALLVFKKHQINMTKLESRPIYGKPWEEMFYLEIEANIHHPDTKQALEELKNYSNYLKILGCYPSEIVKPVSV | not soluble |
| MENKRTLVVALGGNALLKRGEPLEADIQRKNIELAARTIAQLTRQWRVVLVHGNGPQVGLLALQNSAYANVTPYPLDILGAESQGMIGYMLQQALKNHLPEREISVLLTQVEVDANDPAFLNPTKYIGPIYDEAQARALQAEKGWVFKADGNAFRRVVPSPQPKRIVENDAIRALISRDHLVICNGGGGVPVVEKADGYHGIEAVIDKDLSAALLASQIHADALLILTDADAVYLDWGKPTQRPLAQVTPELLREMQFDAGSMGPKVTACAEFVSHCRGIAGIGSLADGQAILAGEKGTLIRCETADVDA | not soluble |
| MELHIWPSDFGLPTIDVVSLQFLACSKMCASPVRVIQSTRPWRSPSGELPMVAQTEGEAKPVTDFEKFVDILKKCGQDVVIDADLTTIEKAQLDAFSCYLHHNLYPAVMHTFWTDELNYNTVTQYWYASHLHFPYNLYYLEKRRKKALRLLAGKNDTEILKEAFMALNTLSTKLGDNKFFCGNKPTSLDALVFGYLAPLLRVPLPNDRLQVQLSACPNLVRFVETVSSIYLPLGEDELKRQQANRKMWQSRISKAKADKEAAKTTEEASESLPEEPPMRDAILFTLGALTLSLVFAIHTGLIQVSVEEEISE | not soluble |

— the DeepSol protein solubility set
